Laboratory results taken from the Human Domainome abundance scans (Beltran et al. 2025).
± gives the uncertainty stated by the source.

Experiment: abundance fitness (aPCA) (normalised: wild type 0, dead -1); higher = more abundant; growth selection in yeast, the domain comes from the species named
Conditions: Homo sapiens

Row | Substance | abundance fitness
1 | Scaffold attachment factor B1 R40G, Q15424 | -0.732 ± 0.056
2 | Scaffold attachment factor B1 R40I, Q15424 | -0.179 ± 0.07
3 | Scaffold attachment factor B1 R40K, Q15424 | -0.416 ± 0.079
4 | Scaffold attachment factor B1 R40L, Q15424 | -0.219 ± 0.055
5 | Scaffold attachment factor B1 R40M, Q15424 | -0.329 ± 0.075
6 | Scaffold attachment factor B1 R40N, Q15424 | -0.786 ± 0.12
7 | Scaffold attachment factor B1 R40P, Q15424 | -0.763 ± 0.074
8 | Scaffold attachment factor B1 R40Q, Q15424 | -0.152 ± 0.06
9 | Scaffold attachment factor B1 R40S, Q15424 | -0.353 ± 0.062
10 | Scaffold attachment factor B1 R40T, Q15424 | -0.319 ± 0.073
11 | Scaffold attachment factor B1 R40V, Q15424 | -0.123 ± 0.067
12 | Scaffold attachment factor B1 R40Y, Q15424 | -0.549 ± 0.077
13 | Scaffold attachment factor B1 R44A, Q15424 | -0.029 ± 0.061
14 | Scaffold attachment factor B1 R44D, Q15424 | -0.156 ± 0.1
15 | Scaffold attachment factor B1 R44E, Q15424 | -0.121 ± 0.091
16 | Scaffold attachment factor B1 R44F, Q15424 | -0.27 ± 0.081
17 | Scaffold attachment factor B1 R44G, Q15424 | -0.096 ± 0.064
18 | Scaffold attachment factor B1 R44H, Q15424 | -0.202 ± 0.072
19 | Scaffold attachment factor B1 R44I, Q15424 | -0.13 ± 0.071
20 | Scaffold attachment factor B1 R44L, Q15424 | -0.107 ± 0.053
21 | Scaffold attachment factor B1 R44P, Q15424 | -0.715 ± 0.075
22 | Scaffold attachment factor B1 R44Q, Q15424 | -0.074 ± 0.071

Row | Substance | abundance fitness
23 | Scaffold attachment factor B1 R44S, Q15424 | -0.096 ± 0.065
24 | Scaffold attachment factor B1 R44T, Q15424 | -0.024 ± 0.062
25 | Scaffold attachment factor B1 R44V, Q15424 | -0.092 ± 0.054
26 | Scaffold attachment factor B1 R46A, Q15424 | -0.745 ± 0.069
27 | Scaffold attachment factor B1 R46C, Q15424 | -0.445 ± 0.1
28 | Scaffold attachment factor B1 R46D, Q15424 | -0.832 ± 0.071
29 | Scaffold attachment factor B1 R46E, Q15424 | -0.954 ± 0.1
30 | Scaffold attachment factor B1 R46F, Q15424 | -0.545 ± 0.069
31 | Scaffold attachment factor B1 R46G, Q15424 | -0.84 ± 0.053
32 | Scaffold attachment factor B1 R46H, Q15424 | -0.423 ± 0.12
33 | Scaffold attachment factor B1 R46I, Q15424 | -0.642 ± 0.072
34 | Scaffold attachment factor B1 R46K, Q15424 | -0.602 ± 0.11
35 | Scaffold attachment factor B1 R46L, Q15424 | -0.491 ± 0.063
36 | Scaffold attachment factor B1 R46M, Q15424 | -0.384 ± 0.1
37 | Scaffold attachment factor B1 R46N, Q15424 | -0.819 ± 0.15
38 | Scaffold attachment factor B1 R46P, Q15424 | -0.937 ± 0.12
39 | Scaffold attachment factor B1 R46Q, Q15424 | -0.734 ± 0.089
40 | Scaffold attachment factor B1 R46S, Q15424 | -0.763 ± 0.068
41 | Scaffold attachment factor B1 R46T, Q15424 | -0.845 ± 0.11
42 | Scaffold attachment factor B1 R46V, Q15424 | -0.797 ± 0.074
43 | Scaffold attachment factor B1 R46W, Q15424 | -0.8 ± 0.062
44 | Scaffold attachment factor B1 R46Y, Q15424 | -0.463 ± 0.064

Row | Substance | abundance fitness
45 | Scaffold attachment factor B1 R60A, Q15424 | -0.22 ± 0.054
46 | Scaffold attachment factor B1 R60C, Q15424 | -0.676 ± 0.1
47 | Scaffold attachment factor B1 R60D, Q15424 | -0.659 ± 0.13
48 | Scaffold attachment factor B1 R60E, Q15424 | -0.551 ± 0.089
49 | Scaffold attachment factor B1 R60F, Q15424 | -0.801 ± 0.053
50 | Scaffold attachment factor B1 R60G, Q15424 | -0.464 ± 0.075
51 | Scaffold attachment factor B1 R60I, Q15424 | -0.551 ± 0.11
52 | Scaffold attachment factor B1 R60K, Q15424 | -0.099 ± 0.065
53 | Scaffold attachment factor B1 R60L, Q15424 | -0.335 ± 0.053
54 | Scaffold attachment factor B1 R60M, Q15424 | -0.38 ± 0.065
55 | Scaffold attachment factor B1 R60N, Q15424 | -0.326 ± 0.11
56 | Scaffold attachment factor B1 R60P, Q15424 | -0.492 ± 0.072
57 | Scaffold attachment factor B1 R60Q, Q15424 | -0.445 ± 0.081
58 | Scaffold attachment factor B1 R60S, Q15424 | -0.321 ± 0.076
59 | Scaffold attachment factor B1 R60T, Q15424 | -0.268 ± 0.081
60 | Scaffold attachment factor B1 R60V, Q15424 | -0.432 ± 0.069
61 | Scaffold attachment factor B1 R60W, Q15424 | -1.17 ± 0.065
62 | Scaffold attachment factor B1 R60Y, Q15424 | -0.642 ± 0.11
63 | Scaffold attachment factor B1 S32C, Q15424 | -0.32 ± 0.077
64 | Scaffold attachment factor B1 S32D, Q15424 | -0.236 ± 0.088
65 | Scaffold attachment factor B1 S32E, Q15424 | -0.419 ± 0.11
66 | Scaffold attachment factor B1 S32F, Q15424 | -0.344 ± 0.083

Row | Substance | abundance fitness
67 | Scaffold attachment factor B1 S32G, Q15424 | -0.235 ± 0.064
68 | Scaffold attachment factor B1 S32H, Q15424 | -0.493 ± 0.1
69 | Scaffold attachment factor B1 S32K, Q15424 | -0.173 ± 0.088
70 | Scaffold attachment factor B1 S32L, Q15424 | -0.294 ± 0.071
71 | Scaffold attachment factor B1 S32M, Q15424 | -0.21 ± 0.067
72 | Scaffold attachment factor B1 S32N, Q15424 | -0.59 ± 0.1
73 | Scaffold attachment factor B1 S32P, Q15424 | -0.514 ± 0.083
74 | Scaffold attachment factor B1 S32R, Q15424 | -0.114 ± 0.057
75 | Scaffold attachment factor B1 S32T, Q15424 | -0.217 ± 0.089
76 | Scaffold attachment factor B1 S32V, Q15424 | -0.174 ± 0.059
77 | Scaffold attachment factor B1 S32W, Q15424 | -0.419 ± 0.053
78 | Scaffold attachment factor B1 S32Y, Q15424 | -0.331 ± 0.082
79 | Scaffold attachment factor B1 S50A, Q15424 | -0.2 ± 0.062
80 | Scaffold attachment factor B1 S50C, Q15424 | -0.226 ± 0.072
81 | Scaffold attachment factor B1 S50E, Q15424 | -0.278 ± 0.078
82 | Scaffold attachment factor B1 S50F, Q15424 | -0.259 ± 0.08
83 | Scaffold attachment factor B1 S50G, Q15424 | -0.257 ± 0.063
84 | Scaffold attachment factor B1 S50H, Q15424 | -0.099 ± 0.072
85 | Scaffold attachment factor B1 S50I, Q15424 | -0.292 ± 0.096
86 | Scaffold attachment factor B1 S50K, Q15424 | -0.558 ± 0.11
87 | Scaffold attachment factor B1 S50L, Q15424 | -0.234 ± 0.058
88 | Scaffold attachment factor B1 S50M, Q15424 | -0.302 ± 0.097

Row | Substance | abundance fitness
89 | Scaffold attachment factor B1 S50N, Q15424 | -0.316 ± 0.091
90 | Scaffold attachment factor B1 S50P, Q15424 | -0.191 ± 0.058
91 | Scaffold attachment factor B1 S50Q, Q15424 | -0.166 ± 0.086
92 | Scaffold attachment factor B1 S50R, Q15424 | -0.365 ± 0.06
93 | Scaffold attachment factor B1 S50T, Q15424 | -0.312 ± 0.093
94 | Scaffold attachment factor B1 S50V, Q15424 | -0.236 ± 0.068
95 | Scaffold attachment factor B1 S50W, Q15424 | -0.226 ± 0.068
96 | Scaffold attachment factor B1 S50Y, Q15424 | -0.248 ± 0.074
97 | Scaffold attachment factor B1 S51A, Q15424 | -0.299 ± 0.071
98 | Scaffold attachment factor B1 S51C, Q15424 | -0.217 ± 0.07
99 | Scaffold attachment factor B1 S51E, Q15424 | -0.247 ± 0.078
100 | Scaffold attachment factor B1 S51F, Q15424 | -0.389 ± 0.085
101 | Scaffold attachment factor B1 S51G, Q15424 | -0.111 ± 0.058
102 | Scaffold attachment factor B1 S51H, Q15424 | -0.26 ± 0.11
103 | Scaffold attachment factor B1 S51I, Q15424 | -0.153 ± 0.089
104 | Scaffold attachment factor B1 S51K, Q15424 | -0.327 ± 0.093
105 | Scaffold attachment factor B1 S51L, Q15424 | -0.197 ± 0.061
106 | Scaffold attachment factor B1 S51M, Q15424 | -0.284 ± 0.07
107 | Scaffold attachment factor B1 S51N, Q15424 | -0.167 ± 0.1
108 | Scaffold attachment factor B1 S51P, Q15424 | -0.879 ± 0.11
109 | Scaffold attachment factor B1 S51Q, Q15424 | -0.271 ± 0.079
110 | Scaffold attachment factor B1 S51R, Q15424 | -0.141 ± 0.076
